From WO2009147196A1 (dated 2009)

Target: Rev of the HIV-1 NL4.3 molecular clone (HIV-1)
Experiment: cell-based or functional assay

B1: Nb_190 expressed intracellularly (pcDNA3.1-Nb_190; HIV-1 NL4.3-Nb_190) (VHH)
VHH: QVQLQESGGGLVQAGGSLRLSCAASGSIFSINTMGWYRQAPGKQRELVAFATSGGSTNYPDSVKGRFTISRDNVKNTVYLQMNSLKPEDTAVYYCNIDGFLGSLYKDYWSQGTQVTVSS
  virus production (p24) from the HIV-1 NL4.3-Nb_190 clone in HEK 293T cells: 300 fold reduction
